For 134 substances, amyloid nucleation score results are on record in the supplement of paper PMC12042874.

± gives the uncertainty stated by the source.

A short description of one data set: amyloid nucleation score (Sup35N fusion, yeast selection) (log enrichment); library NNK2; higher = more nucleation; inactive = no reads after selection. Summed up: (§1)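 For the nucleation score, DiMSum gave the log enrichment of output over input reads, centred on the mode score of non-aggregating sequences. Psi-negative yeast expressing Sup35N fused to peptides of 20 random codons were induced with 100 μM copper sulfate for 24 hours and grown 7 days at 30°C on medium lacking adenine and uracil. Input and output plasmid inserts were Illumina-sequenced, and sequences with under 100 input reads were excluded.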
Substance AAKTNCDC came in with an amyloid nucleation score of -0.01 ± 1.

As for AALHNYAVSFCFMSPMKQKT, the amyloid nucleation score was -0.542 ± 0.76.

The substance AALNDNTSL registered an amyloid nucleation score of 5.71 ± 0.079.

The substance AAVFMLQRLDFINRMASASF gave an amyloid nucleation score of 3.72 ± 0.055.

The substance ACCLIAIWRPI had an amyloid nucleation score of 5.47 ± 0.085.

The substance ACFNLEKIVINYFWFS had an amyloid nucleation score of 6.999 ± 0.039.

Take ACFWSVIVHTMKRTVQPQPK: the amyloid nucleation score was 3.6 ± 0.09.

With ACKVYKLAMNIVLGGTGWSD, the amyloid nucleation score was determined as 4.8 ± 0.077.

In turn, ACLGHSLAVVRTMTDSRKRL came in with an amyloid nucleation score of 0.367 ± 0.74.

Turning to ACLHFVSYSELAVFDFSFGK, the amyloid nucleation score was determined as 6.89 ± 0.079.

As for ACRAICVPKGVGYWFCVTSE, the amyloid nucleation score turned out to be 0.54 ± 0.51.

In turn, ACRELVWLG showed an amyloid nucleation score of 0.354 ± 0.65.

On to ACSVNCLRECNR, for which the amyloid nucleation score entry was “inactive”.

As for ADATGVECPIYDRRRVNRTN, the amyloid nucleation score was -0.235 ± 0.8.

ADLWKLGLRAILELGPL gave an amyloid nucleation score of -0.165 ± 1.

For ADWMFRFMKERRQMVWNTRI, the amyloid nucleation score was found to be 0.044 ± 1.1.

AEDFVLAEEYI had an amyloid nucleation score of -0.285 ± 0.76.

Take AEEQLLWFCYFRELKILNIF: the amyloid nucleation score entry is “inactive”.

Substance AEKQVCLAQKFLNLQLIFRW registered an amyloid nucleation score of 1.72 ± 0.12.

For the substance AEYIWWMVPVMKELVNEV, the amyloid nucleation score turned out to be 0.362 ± 0.38.

Substance AEYKCAFFMSLNAVALDKRY had an amyloid nucleation score of 3.2 ± 0.12.

As for AFAFINIWKHLYIFQGQPSL, the amyloid nucleation score result was “inactive”.

Turning to AFCLTLTGACLSMSDVARFT, the amyloid nucleation score was 4.19 ± 0.098.

On to AFELSVTLCSTEMLQHRCIG, for which the amyloid nucleation score was -0.081 ± 1.1.

For AFFNE, the amyloid nucleation score worked out at 6.023 ± 0.039.

Take AFGRTTKKDVCLFGYPKQVE: the amyloid nucleation score is -0.235 ± 0.46.

Substance AFIRPIVSLVVLSQGV registered an amyloid nucleation score of 0.827 ± 0.6.

Consider AFLFSRDCMERWTMYDGLWW, for which the amyloid nucleation score is -0.063 ± 0.42.

Turning to AFTLQIHGFSVIVTASLQVS, the amyloid nucleation score was -0.642 ± 1.1.

Take AFVCMRVVLICKIRLNFVRA: the amyloid nucleation score is -0.519 ± 0.5.

On to AFYWVWDLDSGICNVSIFRL, for which the amyloid nucleation score is -0.995 ± 0.34.

As to AGHWLCLVTNFVVRGGDKLF, the amyloid nucleation score worked out at 2.76 ± 0.13.

As for AGKFSWDNPYILLVNTI, the amyloid nucleation score entry is “inactive”.

On to AGMHLRVWHSDTHHWLLLNR, for which the amyloid nucleation score worked out at 3.76 ± 0.074.

AGSARRLGLMPRGSGYALGW had an amyloid nucleation score of 1.44 ± 0.17.

In turn, AILNAVGCNWGTRCDGLSVQ yielded an amyloid nucleation score of -0.213 ± 0.48.

With AILYDHSYSYWVSFRNVKCK, the amyloid nucleation score was determined as 0.215 ± 0.65.

AINLSDKAARVPLFK had an amyloid nucleation score of -0.093 ± 0.34.

In turn, AISPVLC returned an amyloid nucleation score of 1.9 ± 0.43.

Take AITSLYSRSLFLVLTCTVCF: the amyloid nucleation score turned out to be 5.683 ± 0.055.

Consider AIVDFTKNFIQCAY, for which the amyloid nucleation score entry is “inactive”.

Consider AIWVMVANSMHCCVA, for which the amyloid nucleation score amounted to 8.622 ± 0.027.

AKGLG displayed an amyloid nucleation score of 1.52 ± 0.31.

On to AKHERSIMVDVMSGRCSTLS, for which the amyloid nucleation score was found to be 1.07 ± 0.24.

On to AKLEVQA, for which the amyloid nucleation score is -0.978 ± 0.36.

On to AKPTRGSCSGT, for which the amyloid nucleation score is 2.79 ± 0.12.

AKVCFFKHESPMGQVGAY: the amyloid nucleation score is -1.2 ± 0.54.

On to AKVSSMVQECNLYLELETRL, for which the amyloid nucleation score entry was “inactive”.

AKYSSLKNMLYGFRRDANMG returned an amyloid nucleation score of 0.296 ± 0.65.

ALDGVRNSEMGKRVSGVCEY: the amyloid nucleation score turned out to be 0.89 ± 0.28.

As for ALEFNT, the amyloid nucleation score turned out to be 4.14 ± 0.1.

With ALENSDSELCETAWFFHFMH, the amyloid nucleation score was 0.185 ± 0.8.

Turning to ALFQECYPGMGNYQGSVATT, the amyloid nucleation score came to 1.09 ± 0.35.

For ALFTLRVMLTTYYWQGMAEF, the amyloid nucleation score worked out at 0.296 ± 0.31.

For ALIKTLYY, the amyloid nucleation score is -0.305 ± 0.48.

The substance ALILECRVRSRS had an amyloid nucleation score of 4.16 ± 0.12.

For the substance ALISSPANCAISWITCILVV, the amyloid nucleation score came to 5.947 ± 0.034.

The nature of a further data set: amyloid nucleation score (Sup35N fusion, yeast selection) (log enrichment); library NNK3; higher = more nucleation; inactive = no reads after selection. Summed up:
as §1
In the case of YNSFSDYYSVFTQHVRDS, the amyloid nucleation score entry is “inactive”.

As to YNSIMFNGW, the amyloid nucleation score result was “inactive”.

As to YNVIT, the amyloid nucleation score result is “inactive”.

Consider YNWIC, for which the amyloid nucleation score entry is “inactive”.

Consider YPCNFYWFRNILADTPIQYD, for which the amyloid nucleation score result is “inactive”.

In the case of YPSCRTSLSARHMVFQGITL, the amyloid nucleation score entry is “inactive”.

Regarding YPSSPGH, the amyloid nucleation score result is “inactive”.

Consider YQCTKMRLVSFRTVVLVLRG, for which the amyloid nucleation score came to 0.04 ± 0.8.

With YQLELSSGSM, the amyloid nucleation score is 0.116 ± 0.28.

Regarding YQLFRFWDVRDSNHSKKIMQ, the amyloid nucleation score result was “inactive”.

YQMTNCSLFFTTLYSVNYDY returned an amyloid nucleation score of 2.81 ± 0.082.

YRAKNSDRCPGDAYTYFVLR: the amyloid nucleation score result was “inactive”.

In turn, YRCDVFFLSVVVDSNFIDKL came in with an amyloid nucleation score of 2.83 ± 0.079.

Regarding YRCFLNFIEMIDTCAGDLES, the amyloid nucleation score result is “inactive”.

For YRCSRNVENYGPSKRGYYTE, the amyloid nucleation score result was “inactive”.

With YRFGDILSVRSLQNFT, the amyloid nucleation score result was “inactive”.

For the substance YRIVVVMMAIISTNDNIP, the amyloid nucleation score was determined as 0.371 ± 0.26.

For the substance YRKMRAEEDKWMVWVYSRRC, the amyloid nucleation score entry is “inactive”.

Take YRKNLRHSLCRNWLYMDCHV: the amyloid nucleation score entry is “inactive”.

Consider YRWAFRWRLG, for which the amyloid nucleation score entry is “inactive”.

For the substance YRWQLRKKALFFFGKFSVHY, the amyloid nucleation score entry was “inactive”.

As for YRYHIMVMKAVIDTNSRKGW, the amyloid nucleation score entry was “inactive”.

As to YSCFVRHCVDRFVRNDSDQT, the amyloid nucleation score entry is “inactive”.

Consider YSCVWNGKWCYYSTANDLS, for which the amyloid nucleation score result is “inactive”.

For YSFECMSH, the amyloid nucleation score result is “inactive”.

In the case of YSFLGRNSIISCIR, the amyloid nucleation score result is “inactive”.

YSFRCPGFNYYL: the amyloid nucleation score entry was “inactive”.

YSGDSWYVLYVGNPPGDYWR registered an amyloid nucleation score of 1.66 ± 0.09.

Take YSGKNLVRSTAGGAVKPVC: the amyloid nucleation score result was “inactive”.

In the case of YSGTRVPR, the amyloid nucleation score came to 0.471 ± 0.29.

YSHWMVRAA yielded an amyloid nucleation score of -0.145 ± 0.81.

On to YSIISSYTFEFSKFAVLALL, for which the amyloid nucleation score entry is “inactive”.

Consider YSLGITGPHEAHQIVNLPWW, for which the amyloid nucleation score result was “inactive”.

Regarding YSLLSSMPLIRRRLGLYESW, the amyloid nucleation score entry was “inactive”.

Take YSMQGYRCMYLGDNVAVLAF: the amyloid nucleation score result was “inactive”.

On to YSNSLRRTSPQEHS, for which the amyloid nucleation score entry is “inactive”.

On to YSRSTSSEMEAERGSAWLES, for which the amyloid nucleation score entry is “inactive”.

Regarding YSSSRLI, the amyloid nucleation score result was “inactive”.

As to YSVIYDRSYRIV, the amyloid nucleation score entry is “inactive”.

With YSVPCSWWTLQLGILPLSRR, the amyloid nucleation score result is “inactive”.

With YSVVNDSGIFFYVGHHVFAV, the amyloid nucleation score entry is “inactive”.

Regarding YTDIVSAIEEVF, the amyloid nucleation score result was “inactive”.

YTGYWTGLYYVFMEINGWGS: the amyloid nucleation score result was “inactive”.

In the case of YTLYLGCGTNDVWVDAYLYS, the amyloid nucleation score entry is “inactive”.

Consider YTRISTIFGYSAMVQFMPCQ, for which the amyloid nucleation score entry was “inactive”.

In the case of YTRSCSMRLF, the amyloid nucleation score entry was “inactive”.

Regarding YVCSDSMLEARVREGTEYRS, the amyloid nucleation score is -0.259 ± 0.98.

Regarding YVDLQPITREADDLRALTFM, the amyloid nucleation score result was “inactive”.

Consider YVEHAYIRWRSVCKSIFLFS, for which the amyloid nucleation score entry is “inactive”.

For the substance YVGYRFSHFSSGKRSCSYL, the amyloid nucleation score entry is “inactive”.

For the substance YVHFAN, the amyloid nucleation score entry is “inactive”.

For YVIMAFLAV, the amyloid nucleation score result is “inactive”.

In the case of YVKIDSRFHGVSHFRFHTAY, the amyloid nucleation score entry is “inactive”.

Take YVLSATG: the amyloid nucleation score entry is “inactive”.

With YVPFNFMKHVIATVLSGV, the amyloid nucleation score was determined as 0.014 ± 0.77.

On to YVRDLGSWMT, for which the amyloid nucleation score result is “inactive”.

Consider YVTTMFEITRGRSWYSRSLG, for which the amyloid nucleation score came to 0.611 ± 0.21.

As for YVVEICAV, the amyloid nucleation score entry is “inactive”.

Take YVVVCSCAWS: the amyloid nucleation score worked out at 2.63 ± 0.074.

With YVWMVSYMFLDFLDSTLALP, the amyloid nucleation score result was “inactive”.

Regarding YVYESFGWVSGNFKVWF, the amyloid nucleation score result was “inactive”.

Regarding YWDDSMKYDLKMVERSVGGK, the amyloid nucleation score entry was “inactive”.

For the substance YWGKRSF, the amyloid nucleation score result is “inactive”.

For YWKFWIKSDVYCRSISGWCR, the amyloid nucleation score result was “inactive”.

In the case of YWNIMIGYLLKSTGSGRSA, the amyloid nucleation score entry is “inactive”.

Regarding YWSCRWGLVLVS, the amyloid nucleation score result was “inactive”.

As to YWTANTDYTNVIGYKNTYVH, the amyloid nucleation score is -0.337 ± 0.33.

For YWYYGCGSVGFAIRPWMSGI, the amyloid nucleation score was 1.58 ± 0.11.

For the substance YYFLDRGGITSTIFRLLCPF, the amyloid nucleation score entry is “inactive”.

Take YYFLLIGSW: the amyloid nucleation score entry was “inactive”.

For YYGGVLVSHRKPSGVCYGYG, the amyloid nucleation score entry is “inactive”.

As to YYGMMYEGGYAVIDIGLGHL, the amyloid nucleation score result is “inactive”.

On to YYIPFASFVSQTCY, for which the amyloid nucleation score entry was “inactive”.

For the substance YYLSFVKKCNDSEVIWTKSV, the amyloid nucleation score result is “inactive”.

Turning to YYLVSHWWFGQCFDHVVS, the amyloid nucleation score result was “inactive”.

For YYPLLIPLY, the amyloid nucleation score result was “inactive”.

In the case of YYWMAWRTLGAVRAG, the amyloid nucleation score was -0.458 ± 0.5.
